Measured values reported in patent publication US20230063116A1 (Regeneron, published 2023).
Read-outs that look alike come from different tables or passages of the source.

T1: VEGF110 (hVEGF110, aa 207-318) (human, UniProt P15692 207-318)
T1 sequence (looked up): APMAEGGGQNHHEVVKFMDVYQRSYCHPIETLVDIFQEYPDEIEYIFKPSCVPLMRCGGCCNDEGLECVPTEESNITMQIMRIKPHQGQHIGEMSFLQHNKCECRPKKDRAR

B1: VEGF121 (hVEGF121, aa 207-327) (ligand)
chain: APMAEGGGQNHHEVVKFMDVYQRSYCHPIETLVDIFQEYPDEIEYIFKPSCVPLMRCGGCCNDEGLECVPTEESNITMQIMRIKPHQGQHIGEMSFLQHNKCECRPKKDRARQEKCDKPRR
B2: REGN3, full-length VEGF Trap (aflibercept) (Fc fusion, human, UniProt P17948 129-231, looked up, not shown: a dimerising Fc or GST)
chain: SDTGRPFVEMYSEIPEIIHMTEGRELVIPCRVTSPNITVTLKKFPLDTLIPDGKRIIWDSRKGFIISNATYKEIGLLTCEATVNGHLYKTNYLTHRQTNTIIDVVLSPSHGIELSVGEKLVLNCTARTELNVGIDFNWEYPSSKHQHKKLVNRDLKTQSGSEMKKFLSTLTIDGVTRSDQGLYTCAASSGLMTKKNSTFVRVHEK
notes: range 129-231;range 226-327; also called Eylea; VEFGR1d2-VEGFR2d3 VEGF Trap
B3: REGN7483^F (homodimer mini-trap, FabRICATOR cleaved from aflibercept) (receptor)
chain: SDTGRPFVEMYSEIPEIIHMTEGRELVIPCRVTSPNITVTLKKFPLDTLIPDGKRIIWDSRKGFIISNATYKEIGLLTCEATVNGHLYKTNYLTHRQTNTIIDVVLSPSHGIELSVGEKLVLNCTARTELNVGIDFNWEYPSSKHQHKKLVNRDLKTQSGSEMKKFLSTLTIDGVTRSDQGLYTCAASSGLMTKKNSTFVRVHEKDKTHTCPPCPAPELLG
modifications: here or on the partner: N-linked glycans at N36, N68, N123, N196 (Table C)
B4: REGN7483^R (homodimer mini-trap, recombinant) (receptor)
chain: B3 chain
modifications: here or on the partner: N-linked glycans at N36, N68, N123, N196 (Table C)
B5: REGN112 (receptor)
chain: SDTGRPFVEMYSEIPEIIHMTEGRELVIPCRVTSPNITVTLKKFPLDTLIPDGKRIIWDSRKGFIISNATYKEIGLLTCEATVNGHLYKTNYLTHRQTNTIIDVVLSPSHGIELSVGEKLVLNCTARTELNVGIDFNWEYPSSKHQHKKLVNRDLKTQSGSEMKKFLSTLTIDGVTRSDQGLYTCAASSGLMTKKNSTFVRVHEKDKTHTCPPC
B6: human VEGF165 (REGN110) (ligand)
chain: APMAEGGGQNHHEVVKFMDVYQRSYCHPIETLVDIFQEYPDEIEYIFKPSCVPLMRCGGCCNDEGLECVPTEESNITMQIMRIKPHQGQHIGEMSFLQHNKCECRPKKDRARQENPCGPCSERRKHLFVQDPQTCKCSCKNTDSRCKARQLELNERTCRCDKPRR
notes: It is treated here as the same molecule; also called hVEGF165; hVEGF165(M1-R191)

Legend:
[1] = target: chimeric VEGFR1 receptors on HEK293/D9/Flt-IL18Rα/Flt-IL18Rβ clone V3H9 cells (UniProt P17948); assay: cell-based or functional assay
[2] = target: chimeric VEGFR1 receptors on HEK293/D9/Flt-IL18Rα/Flt-IL18Rβ clone V3H9 cells (UniProt P17948); assay: cell-based or functional assay; remark: listed apart in the source
[3] = target: chimeric VEGFR1 receptors on HEK293/D9/Flt-IL18Rα/Flt-IL18Rβ clone V3H9 cells (UniProt P17948); assay: cell-based or functional assay; remark: listed apart in the source
[4] = target: T2, chimeric VEGFR1 receptors on HEK293/D9/Flt-IL18Rα/Flt-IL18Rβ clone V3H9 cells (UniProt P17948 27-758; Q13478 351-541; P17948 27-758; O95256 378-599, limits assumed); assay: cell-based or functional assay
[5] = target: T2, chimeric VEGFR1 receptors on …; assay: cell-based or functional assay; remark: listed apart in the source
[6] = target: T2, chimeric VEGFR1 receptors on …; assay: cell-based or functional assay; remark: listed apart in the source
[7] = target: B6; assay: SPR, Biacore, 25 C; trap captured on anti-VEGFR1 mAb surface, hVEGF165 injected
Protocol: (§1) Experimental Procedure. Equilibrium dissociation constants (KD values) for human VEGF₁₆₅ binding to various purified VEGF mini-trap constructs were determined using a real-time surface plasmon resonance biosensor using a Biacore 3000 instrument. All binding studies were performed in 10 mM HEPES, 150 mM NaCl, 3 mM EDTA, and 0.05% v/v Surfactant Tween-20, pH 7.4 (HBS-ET) running buffer at 25° C. The Biacore sensor surface was first derivatized by amine coupling with a monoclonal mouse anti-VEGFR1 antibody to capture VEGF mini-trap constructs. Binding studies were performed on the human VEGF reagent, human VEGF₁₆₅ (human VEGF₁₆₅; SEQ ID NO: 31). Different concentrations of VEGF₁₆₅ reagent, prepared in HBS-ET running buffer (2 nM — 62.5 pM; 2-fold serial dilution for human VEGF₁₆₅), were injected over an anti-VEGFR1-captured VEGF mini-trap construct surface for 1.8 minutes at a flow rate of 90 μL/minute, while the dissociation of VEGF mini-trap constructs bound VEGF₁₆₅ reagent was monitored for 60 minutes in HBS-ET running buffer. Kinetic association (kₐ) and dissociation (kd) rate constants were determined by fitting the real-time sensorgrams to a 1:1 binding model using Scrubber 2.0c curve fitting software. Binding dissociation equilibrium constants (KD) and dissociative half-lives (t½) were calculated from the kinetic rate constants as: […]

[8] = target: B6; assay: cell-based or functional assay
[9] = target: B1; assay: cell-based or functional assay
[10] = target: T1, VEGF110 (hVEGF110, aa 207-318); assay: cell-based or functional assay
[11] = target: B1; assay: cell-based or functional assay
[12] = target: T1, VEGF110 (hVEGF110, aa 207-318); assay: cell-based or functional assay; remark: listed apart in the source
[13] = target: B6; assay: SPR, Biacore, 25 C; trap captured on anti-VEGFR1 mAb surface, hVEGF165 injected; 1:1 fit
Protocol: as §1

[14] = target: B6; assay: SPR, Biacore 3000, 25 C; trap captured on anti-VEGFR1 mAb surface, hVEGF165 injected; 1:1 fit
[15] = target: B6; assay: SPR, Biacore 3000, 25 C; trap captured on anti-VEGFR1 mAb surface, hVEGF165 injected
[16] = target: B6; assay: cell-based or functional assay; remark: listed apart in the source
[17] = target: B1; assay: cell-based or functional assay
[18] = target: T1, VEGF110 (hVEGF110, aa 207-318); assay: cell-based or functional assay; remark: listed apart in the source
[19] = target: VEGF121 (hVEGF121, aa 207-327) (human), P15692; assay: cell-based or functional assay
[20] = target: B1; assay: cell-based or functional assay
[21] = target: B6; assay: cell-based or functional assay; remark: listed apart in the source
[22] = target: T1, VEGF110 (hVEGF110, aa 207-318); assay: cell-based or functional assay; remark: listed apart in the source
[23] = target: B2; assay: SPR, Biacore, 25 C; trap captured on anti-VEGFR1 mAb surface, hVEGF165 injected; 1:1 fit
Protocol: as §1

[24] = target: B2; assay: SPR, Biacore 3000, 25 C; trap captured on anti-VEGFR1 mAb surface, hVEGF165 injected; 1:1 fit

Chain of chimeric VEGFR1 receptors on HEK293/D9/Flt-IL18Rα/Flt-IL18Rβ clone V3H9 cells (UniProt P17948) (P17948 other isoform, or with tags, fused parts or gaps mutant limits assumed, chain 1 of 2): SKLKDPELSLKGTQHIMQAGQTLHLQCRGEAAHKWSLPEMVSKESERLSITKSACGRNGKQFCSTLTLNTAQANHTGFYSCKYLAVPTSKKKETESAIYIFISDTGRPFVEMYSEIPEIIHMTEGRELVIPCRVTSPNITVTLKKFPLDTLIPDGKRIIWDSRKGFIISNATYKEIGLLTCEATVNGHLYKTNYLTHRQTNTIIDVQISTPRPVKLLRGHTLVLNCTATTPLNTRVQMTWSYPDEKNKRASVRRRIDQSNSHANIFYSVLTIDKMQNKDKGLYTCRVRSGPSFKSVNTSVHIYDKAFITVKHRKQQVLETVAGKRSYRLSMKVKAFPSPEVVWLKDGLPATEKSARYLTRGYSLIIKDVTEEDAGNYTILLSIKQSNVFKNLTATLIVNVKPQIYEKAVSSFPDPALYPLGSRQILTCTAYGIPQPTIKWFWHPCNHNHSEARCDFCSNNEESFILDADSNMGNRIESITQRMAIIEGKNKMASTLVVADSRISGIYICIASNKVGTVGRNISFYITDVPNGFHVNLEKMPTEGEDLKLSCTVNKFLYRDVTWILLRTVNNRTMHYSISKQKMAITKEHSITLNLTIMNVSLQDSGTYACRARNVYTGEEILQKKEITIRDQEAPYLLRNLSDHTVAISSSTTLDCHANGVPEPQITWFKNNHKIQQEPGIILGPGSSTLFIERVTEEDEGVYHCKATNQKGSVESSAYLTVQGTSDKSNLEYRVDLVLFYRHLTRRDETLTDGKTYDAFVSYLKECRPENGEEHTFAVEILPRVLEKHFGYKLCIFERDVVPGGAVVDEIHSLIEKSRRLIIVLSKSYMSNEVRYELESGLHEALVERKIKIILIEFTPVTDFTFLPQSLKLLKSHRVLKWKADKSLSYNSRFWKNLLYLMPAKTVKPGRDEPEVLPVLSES
Chain of chimeric VEGFR1 receptors on HEK293/D9/Flt-IL18Rα/Flt-IL18Rβ clone V3H9 cells (UniProt P17948) (P17948 other isoform, or with tags, fused parts or gaps mutant limits assumed, chain 2 of 2): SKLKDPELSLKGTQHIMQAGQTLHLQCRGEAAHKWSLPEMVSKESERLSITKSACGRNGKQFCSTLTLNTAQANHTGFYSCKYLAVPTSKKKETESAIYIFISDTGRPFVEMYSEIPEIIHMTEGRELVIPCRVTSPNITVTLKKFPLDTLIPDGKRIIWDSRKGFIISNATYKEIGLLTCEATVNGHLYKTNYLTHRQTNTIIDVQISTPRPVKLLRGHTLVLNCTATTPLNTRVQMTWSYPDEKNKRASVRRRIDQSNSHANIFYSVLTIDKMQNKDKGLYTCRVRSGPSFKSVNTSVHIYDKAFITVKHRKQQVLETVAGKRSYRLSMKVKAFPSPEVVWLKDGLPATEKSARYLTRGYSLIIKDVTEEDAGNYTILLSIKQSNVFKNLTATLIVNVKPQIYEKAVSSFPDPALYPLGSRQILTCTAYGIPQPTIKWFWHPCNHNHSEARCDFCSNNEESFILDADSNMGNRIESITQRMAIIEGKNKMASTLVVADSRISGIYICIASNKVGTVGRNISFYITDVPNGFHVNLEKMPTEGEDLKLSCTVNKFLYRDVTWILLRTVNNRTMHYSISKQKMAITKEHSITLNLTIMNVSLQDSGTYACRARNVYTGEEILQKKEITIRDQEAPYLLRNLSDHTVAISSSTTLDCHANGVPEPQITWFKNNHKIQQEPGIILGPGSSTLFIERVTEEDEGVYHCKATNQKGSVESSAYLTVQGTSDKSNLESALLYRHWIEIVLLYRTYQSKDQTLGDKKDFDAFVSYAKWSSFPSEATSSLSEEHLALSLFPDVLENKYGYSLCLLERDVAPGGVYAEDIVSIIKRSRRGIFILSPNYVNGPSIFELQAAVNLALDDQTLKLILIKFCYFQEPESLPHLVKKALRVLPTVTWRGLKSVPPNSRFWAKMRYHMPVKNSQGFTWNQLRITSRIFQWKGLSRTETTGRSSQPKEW
T2 sequence (P17948 other isoform, or with tags, fused parts or gaps mutant limits assumed, chain 1 of 2): as the sequence (P17948 other isoform, or with tags, fused parts or gaps mutant limits assumed, chain 1 of 2) above
T2 sequence (P17948 other isoform, or with tags, fused parts or gaps mutant limits assumed, chain 2 of 2): as the sequence (P17948 other isoform, or with tags, fused parts or gaps mutant limits assumed, chain 2 of 2) above

## VEGF110 (hVEGF110, aa 207-318) (from UniProt P15692 207-318) (ligand)
[1]
  EC50 (M), activation of HEK293/D9/Flt-IL18Ra/Flt-IL18Rb (luciferase): 1.14e-11 M
[2]
  EC50 (M), activation of HEK293/D9/Flt-IL18Ra/Flt-IL18Rb (luciferase): 2.4e-11 M
[3]
  EC50 (M), activation of HEK293/D9/Flt-IL18Ra/Flt-IL18Rb (luciferase): 1.51e-11 M

## B1
[4]
  EC50 (M), activation of HEK293/D9/Flt-IL18Ra/Flt-IL18Rb (luciferase): 4.4e-11 M
[5]
  EC50 (M), activation of HEK293/D9/Flt-IL18Ra/Flt-IL18Rb (luciferase): 2.12e-11 M
[6]
  EC50 (M), activation of HEK293/D9/Flt-IL18Ra/Flt-IL18Rb (luciferase): 2.56e-11 M

## B2
[7]
  2nM hVEGF165 Bound: 29 RU
[8]
  IC50 (M), inhibition of VEGFR1 signaling (luciferase), 20 pM VEGF165: 1.18e-11 M
[9]
  IC50 (M), inhibition of VEGFR1 signaling (luciferase), 20 pM VEGF121: 8.94e-12 M
[10]
  IC50 (M), inhibition of VEGFR1 signaling (luciferase), 20 pM VEGF110: 1.53e-11 M
[11]
  IC50 (M), inhibition of VEGFR1 signaling (luciferase), 20 pM VEGF121: 9.64e-12 M
[12]
  IC50 (M), inhibition of VEGFR1 signaling (luciferase), 20 pM VEGF110: 1.53e-11 M
[13]
  t1/2 (dissociative half-life): ≥ 19.2 h
[14]
  t½ (dissociative half-life): ≥ 19.2 h
[15]
  100 nM hVEGF165 Bound: 21 RU
[16]
  IC50 (M), inhibition of VEGFR1 signaling (luciferase), 20 pM VEGF165: 2.09e-11 M
[17]
  IC50 (M), inhibition of VEGFR1 signaling (luciferase), 20 pM VEGF121: 1.26e-11 M
[18]
  IC50 (M), inhibition of VEGFR1 signaling (luciferase), 20 pM VEGF110: 1.15e-11 M

## B3
[19]
  IC50 (M), inhibition of VEGFR1 signaling (luciferase), 20 pM VEGF121: 9.27e-12 M

## B4
[19]
  IC50 (M), inhibition of VEGFR1 signaling (luciferase), 20 pM VEGF121: 8.79e-12 M

## B5
[20]
  IC50 (read off the curve); VEGFR1 reporter luciferase with 40 pM VEGF121 constant: ~1e-10 M
[21]
  IC50 (read off the curve); VEGFR1 reporter luciferase with 40 pM VEGF165 constant: ~2e-10 M
[22]
  IC50 (read off the curve); VEGFR1 reporter luciferase with 20 pM VEGF110 constant: ~1e-10 M

## B6
[4]
  EC50 (M), activation of HEK293/D9/Flt-IL18Ra/Flt-IL18Rb (luciferase): 4.3e-11 M
[23]
  Kd: ≤ 0.00127 nM
[24]
  Kd: ≤ 0.00179 nM
